Source: paper PMC5411485

Test system: ScNsrR wild type, [4Fe-4S] holo (Streptomyces coelicolor)
Assay: EMSA
Settings: EMSA: 10 mM Tris, 54 mM KCl, 0.3% glycerol, 1.32 mM glutathione, pH 7.2, on ice ~10 min; 5% PAGE in 1x TBE

Substance: hmpA1 promoter probe
- K half ([4Fe-4S] protein:DNA ratio): < 2
